The target in test [1] is HLA-A*02:12. The test is described as follows: IEDB peptide-MHC binding, purified MHC/competitive/fluorescence; filed as Kd, often an IC50 or EC50 that approximates it; ≥ and ≤ were set here for values at or beyond the usual limits of such assays.
For test [2], the target named is HLA-A*02:16. Described as above.
Test [3] concerns the target HLA-A*02:11. Described as above.
For test [4], the target named is HLA-B*15:17. The test is described as above.
Test [5] concerns the target HLA-A*29:02. The test is described as above.
In test [6] the target is HLA-B*39:01. The test is described as above.
The target of test [7] is HLA-B*57:01. Described as above.
Test [8] addresses HLA-B*18:01. Described as above.
Test [9] has as its target HLA-A*24:03. Described as above.
Test [10] deals with HLA-A*02:01. The description is as above.
The target in test [11] is HLA-A*03:01. Described as above.
Test [12] concerns the target HLA-A*68:02. The test is described as above.
In test [13] the target is HLA-A*69:01. The test is described as above.
In test [14] the target is HLA-A*02:03. The test is described as above.
The target of test [15] is HLA-A*02:19. Described as above.
Test [16] has as its target HLA-B*15:01. The description is as above.
In test [17] the target is HLA-A*26:01. The test is described as above.
Test [18] deals with HLA-B*46:01. Described as above.
In test [19] the target is HLA-B*27:03. Described as above.
Test [20] has as its target HLA-B*51:01. The description is as above.
The target in test [21] is HLA-A*02:01. As to the kind of experiment: IEDB peptide-MHC binding, purified MHC/competitive/fluorescence; ≥ and ≤ were set here for values at or beyond the usual limits of such assays. The conditions noted are these: source organism: Zaire ebolavirus.
Test [22] concerns the target HLA-B*07:02. Described as above. The conditions noted are these: source organism: Zaire ebolavirus.
Test [23] deals with HLA-B*08:01. The description is as above. To be noted: source organism: Zaire ebolavirus.
For test [24], the target named is HLA-A*24:02. The description is as above. The conditions noted are these: source organism: Zaire ebolavirus.
The target of test [25] is HLA-A*02:12. The test is described as follows: IEDB peptide-MHC binding, purified MHC/direct/fluorescence; filed as Kd, often an IC50 or EC50 that approximates it; ≥ and ≤ were set here for values at or beyond the usual limits of such assays. To be noted: source organism: Zaire ebolavirus.
The target in test [26] is HLA-A*02:16. The description is as above. To be noted: source organism: Zaire ebolavirus.
Test [27] deals with HLA-A*02:11. The test is described as above. To be noted: source organism: Zaire ebolavirus.
Test [28] concerns the target HLA-A*29:02. The description is as above. To be noted: source organism: Zaire ebolavirus.
Test [29] concerns the target HLA-A*23:01. Described as above. The conditions noted are these: source organism: Zaire ebolavirus.
In test [30] the target is HLA-A*24:03. Described as above. To be noted: source organism: Zaire ebolavirus.
For test [31], the target named is HLA-B*07:02. Described as above. To be noted: source organism: Zaire ebolavirus.
Test [32] deals with HLA-A*03:01. The test is described as above. The conditions noted are these: source organism: Zaire ebolavirus.
Test [33] has as its target HLA-A*68:02. The test is described as above. The conditions noted are these: source organism: Zaire ebolavirus.
The target of test [34] is HLA-A*02:03. The test is described as above. To be noted: source organism: Zaire ebolavirus.
The target of test [35] is HLA-A*02:19. The description is as above. To be noted: source organism: Zaire ebolavirus.
Test [36] deals with HLA-A*23:01. As to the kind of experiment: IEDB peptide-MHC binding, purified MHC/competitive/fluorescence; filed as Kd, often an IC50 or EC50 that approximates it; ≥ and ≤ were set here for values at or beyond the usual limits of such assays.
For test [37], the target named is HLA-A*31:01. The description is as above. To be noted: source organism: Escherichia coli E110019.
[38] abbreviates: source organism: Giardia lamblia ATCC 50803.
Where [39] appears, read: source organism: Zaire ebolavirus.
Where [40] appears, read: source organism: Escherichia coli E110019.

Some results are limits rather than exact numbers.

For orientation: Kd means the equilibrium constant for the complex coming apart. Higher therefore signals a looser complex. In general, IC50 refers to the concentration that inhibits the measured activity by half.

Turning to ALGGSCHTT, the equilibrium dissociation constant (Kd) in [1] (setting [38]), in test [2] (setting [38]), in test [3] (setting [38]), in test [4] (setting [38]), in test [5] (setting [38]) and in [6] (setting [38]) was at least 20 µM in each case. The Kd in test [7] (setting [38]), in test [8] (setting [38]), in test [9] (setting [38]), in test [10] (setting [38]), in test [11] (setting [38]) and in test [12] (setting [38]) was at least 20 µM each time. Further, the Kd was at least 20 µM in test [13] (setting [38]); at least 20 µM in [14] (setting [38]); 0.555 µM in test [15] (setting [38]); at least 20 µM in test [16] (setting [38]); at least 20 µM in test [17] (setting [38]); at least 20 µM in [18] (setting [38]). Moreover, the dissociation constant Kd in [19] (setting [38]) and in test [20] (setting [38]) was at least 20 µM each time.

As to APFARLLNL, the dissociation constant (Kd) in test [4] (setting [39]), in test [6] (setting [39]), in test [7] (setting [39]), in test [8] (setting [39]), in test [10] (setting [39]) and in [13] (setting [39]) was at least 20 µM each time. The Kd in test [16] (setting [39]), in test [17] (setting [39]), in test [18] (setting [39]), in [19] (setting [39]), in test [20] (setting [39]) and in test [25] was at least 20 µM in each case. Further, the Kd in test [26] was at least 20 µM; in [27], at least 20 µM; in [28] it was at least 20 µM; in test [29] it was at least 20 µM; in [30], at least 20 µM; in [31], 21.8 nM. Also, the Kd in test [32], in test [33], in test [34] and in test [35] was at least 20 µM throughout. For the same sequence, the IC50 in [21] is at least 161 µM; in test [22], 633 nM; in test [23] it was 7.08 µM; in test [24], 5.54 µM.

In the case of RAFWGQVQK, the dissociation constant Kd in test [1] (setting [40]), in test [2] (setting [40]), in test [3] (setting [40]), in [6] (setting [40]), in test [7] (setting [40]) and in test [36] (setting [40]) was at least 20 µM each time. The Kd in [8] (setting [40]), in test [9] (setting [40]), in [10] (setting [40]), in test [12] (setting [40]), in [13] (setting [40]) and in test [14] (setting [40]) was at least 20 µM in each case. Further, the Kd is at least 20 µM in [15] (setting [40]); at least 20 µM in test [16] (setting [40]); at least 20 µM in [17] (setting [40]); at least 20 µM in [18] (setting [40]); 2.7 nM in test [37]; at least 20 µM in [20] (setting [40]).

Turning to SQLPPACPV, the dissociation constant Kd in [1] (source organism: Homo sapiens) is 0.17 µM; in test [2] (source organism: Homo sapiens), at least 20 µM; in [4] (source organism: Homo sapiens), at least 20 µM; in test [5] (source organism: Homo sapiens), at least 20 µM; in test [7] (source organism: Homo sapiens) it was at least 20 µM; in test [36] (source organism: Homo sapiens) it was at least 20 µM. In addition, the Kd in test [8] (source organism: Homo sapiens) is at least 20 µM; in test [9] (source organism: Homo sapiens), at least 20 µM; in test [10] (source organism: Homo sapiens) it was 0.0306 µM; in test [11] (source organism: Homo sapiens) it was at least 20 µM; in test [13] (source organism: Homo sapiens), at least 20 µM; in test [14] (source organism: Homo sapiens) it was at least 20 µM. Further, the Kd in [15] (source organism: Homo sapiens), in test [17] (source organism: Homo sapiens), in test [18] (source organism: Homo sapiens), in test [19] (source organism: Homo sapiens) and in [20] (source organism: Homo sapiens) was at least 20 µM throughout.

These data come from the Immune Epitope Database (IEDB).
